B1: LIM/homeobox protein Lhx4 (Homo sapiens), Q969G2 (parent)
chain: MMQSATVPAEGAVKGLPEMLGVPMQQIPQCAGCNQHILDKFILKVLDRHWHSSCLKCADCQMQLADRCFSRAGSVYCKEDFFKRFGTKCTACQQGIPPTQVVRKAQDFVYHLHCFACIICNRQLATGDEFYLMEDGRLVCKEDYETAKQNDDSEAGAKRPRTTITAKQLETLKNAYKNSPKPARHVREQLSSETGLDMRVVQVWFQNRRAKEKRLKKDAGRHRWGQFYKSVKRSRGSSKQEKESSAEDCGVSDSELSFREDQILSELGHTNRIYGNVGDVTGGQLMNGSFSMDGTGQSYQDLRDGSPYGIPQSPSSISSLPSHAPLLNGLDYTVDSNLGIIAHAGQGVSQTLRAMAGGPTSDISTGSSVGYPDFPTSPGSWLDEMDHPPF
partner: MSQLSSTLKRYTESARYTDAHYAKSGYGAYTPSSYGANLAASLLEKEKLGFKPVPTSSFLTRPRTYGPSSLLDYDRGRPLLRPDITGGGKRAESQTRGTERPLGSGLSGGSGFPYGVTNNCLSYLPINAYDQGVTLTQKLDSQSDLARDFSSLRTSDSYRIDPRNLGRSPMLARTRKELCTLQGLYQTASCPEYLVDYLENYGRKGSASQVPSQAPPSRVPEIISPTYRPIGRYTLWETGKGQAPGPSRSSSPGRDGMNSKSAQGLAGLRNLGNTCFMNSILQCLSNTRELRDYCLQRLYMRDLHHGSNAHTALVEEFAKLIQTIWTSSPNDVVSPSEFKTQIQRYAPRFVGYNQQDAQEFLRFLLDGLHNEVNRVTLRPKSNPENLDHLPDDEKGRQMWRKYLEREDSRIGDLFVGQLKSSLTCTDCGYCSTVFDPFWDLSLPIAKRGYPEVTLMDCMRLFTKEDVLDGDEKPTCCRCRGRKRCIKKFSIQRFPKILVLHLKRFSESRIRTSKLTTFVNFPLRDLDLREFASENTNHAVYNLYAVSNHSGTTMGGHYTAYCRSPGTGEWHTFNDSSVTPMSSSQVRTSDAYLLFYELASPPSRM
B2: Leucine rich adaptor protein 1 (Homo sapiens), Q96LR2 (parent)
chain: MEGTVESQTPDLRDVEGKVGRKTPEGLLRGLRGECELGTSGALLLPGASSTGHDLGDKIMALKMELAYLRAIDVKILQQLVTLNEGIEAVRWLLEERGTLTSHCSSLTSSQYSLTGGSPGRSRRGSWDSLPDTSTTDRLDSVSIGSFLDTVAPSELDEQGPPGAPRSEMDWAKVIAGGERARTEVDVAATRLGSLRAVWKPPGERLQGGPPESPEDESAKLGFEAHWFWEQCQDDVTFL
partner: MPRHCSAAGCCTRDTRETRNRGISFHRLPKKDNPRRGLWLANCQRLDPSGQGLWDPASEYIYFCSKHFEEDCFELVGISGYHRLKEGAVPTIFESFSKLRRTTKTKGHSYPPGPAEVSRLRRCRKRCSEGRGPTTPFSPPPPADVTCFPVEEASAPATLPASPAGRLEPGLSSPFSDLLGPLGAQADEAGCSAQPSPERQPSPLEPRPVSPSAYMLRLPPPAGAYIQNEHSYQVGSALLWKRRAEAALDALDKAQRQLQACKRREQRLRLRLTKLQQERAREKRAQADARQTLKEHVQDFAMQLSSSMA
B3: Microtubule-associated tumor suppressor candidate 2 (Homo sapiens), Q5JR59-3 (parent)
chain: MGHCCCKPYNCLQCLDKTNESALVKEKELSIELANIRDEVAFHTAKCEKLQKEKEELERRFEDEVKRLGWQQQAELQELEERLQLQFEAEMARLQEEHGDQLLSIRCQHQEQVEDLTASHDAALLEMENNHTVAITILQDDHDHKVQELMSTHELEKKELEENFEKLRLSLQDQVDTLTFQSQSLRDRARRFEEALRKNTEEQLEIALAPYQHLEEDMKSLKQVLEMKNQQIHEQEKKILELEKLAEKNIILEEKIQVLQQQNEDLKARIDQNTVVTRQLSEENANLQEYVEKETQEKKRLSRTNEELLWKLQTGDPTSPIKLSPTSPVYRGSSSGPSSPARVSTTPR
partner: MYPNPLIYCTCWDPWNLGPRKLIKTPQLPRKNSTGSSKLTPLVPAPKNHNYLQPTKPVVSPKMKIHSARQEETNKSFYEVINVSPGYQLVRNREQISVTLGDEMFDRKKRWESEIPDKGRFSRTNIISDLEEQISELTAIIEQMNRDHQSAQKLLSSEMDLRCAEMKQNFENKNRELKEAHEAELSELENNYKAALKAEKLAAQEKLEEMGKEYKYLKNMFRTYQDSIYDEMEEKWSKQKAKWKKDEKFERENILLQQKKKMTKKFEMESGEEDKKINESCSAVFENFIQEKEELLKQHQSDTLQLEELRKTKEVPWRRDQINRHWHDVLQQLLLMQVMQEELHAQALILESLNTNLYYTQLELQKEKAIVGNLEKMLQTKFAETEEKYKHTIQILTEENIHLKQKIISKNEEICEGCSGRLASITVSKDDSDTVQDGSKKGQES
B4: Calcium-binding and coiled-coil domain-containing protein 2 (Homo sapiens), Q13137 (parent)
chain: MEETIKDPPTSAVLLDHCHFSQVIFNSVEKFYIPGGDVTCHYTFTQHFIPRRKDWIGIFRVGWKTTREYYTFMWVTLPIDLNNKSAKQQEVQFKAYYLPKDDEYYQFCYVDEDGVVRGASIPFQFRPENEEDILVVTTQGEVEEIEQHNKELCKENQELKDSCISLQKQNSDMQAELQKKQEELETLQSINKKLELKVKEQKDYWETELLQLKEQNQKMSSENEKMGIRVDQLQAQLSTQEKEMEKLVQGDQDKTEQLEQLKKENDHLFLSLTEQRKDQKKLEQTVEQMKQNETTAMKKQQELMDENFDLSKRLSENEIICNALQRQKERLEGENDLLKRENSRLLSYMGLDFNSLPYQVPTSDEGGARQNPGLAYGNPYSGIQESSSPSPLSIKKCPICKADDICDHTLEQQQMQPLCFNCPICDKIFPATEKQIFEDHVFCHSL

Variants of: B1
Settings: with ubp2_human USP2, O75604

effect of a mutation on the interaction | Variant
with no effect | MMQSATVPAEGAVKGLPEMLGVPMQQIPQCAGCNQHILDKFILKVLDRHWHSSCLKCADCQMQLADRCFSRAGSVYCKEDFFKRFGTKCTACQQGIPPTQVVRKAQDFVYHLHCFACIICNRQLATGDEFYLMEDGRLVCKEDYETAKQNDDSEAGAKRPRTTITAKQLETLKNAYKNSPKPARHVREQLSSETGLDMRVVQVWFQNRRAKEKRLKKDAGRHRWGQFYKSVKRSRGSSKQEKESSAEDCGVSDSELSFREDQILSELGHTNRIYGNVGDVTGGQLMNGSFSMDGTGQSYQDLRDGSPYGIPQSPSSISSLPSHAPLLSGLDYTVDSNLGIIAHAGQGVSQTLRAMAGGPTSDISTGSSVGYPDFPTSPGSWLDEMDHPPF [N328S]

Variants of: B2
Settings: with thap7_human THAP7, Q9BT49

effect of a mutation on the interaction | Variant
with no effect | MEGTVESQTPDLRDVEGKVGRKTPEGLLRGLRGECELGTSGALLLPGASSTGHDLGDKILALKMELAYLRAIDVKILQQLVTLNEGIEAVRWLLEERGTLTSHCSSLTSSQYSLTGGSPGRSRRGSWDSLPDTSTTDRLDSVSIGSFLDTVAPSELDEQGPPGAPRSEMDWAKVIAGGERARTEVDVAATRLGSLRAVWKPPGERLQGGPPESPEDESAKLGFEAHWFWEQCQDDVTFL [M60L]
disrupting interaction strength | MEGTVESQTPDLRDVEGKVGRKTPEGLLRGLRGECELGTSGALLLPGASSTGHDLGDKIMALKMELAYLRAIDVKILQQLVTLNEGIEAVRWLLEERGTLTSHCSSLTSSQYSLTGGSPGRSRRGSWDSLPDTSTTDRLDSVSIGSFLDTVAPSELDEQGPPGAPRSEMDWAKVIAGGERARTEVDVAATRLGSLRAVWKPPGERLRGGPPESPEDESAKLGFEAHWFWEQCQDDVTFL [Q207R]

Variants of: B3
Settings: with facc1_human FLACC1, Q96Q35

effect of a mutation on the interaction | Variant
with no effect | MGHCCCKPYNCLQCLDKTNESALVKEKELSIELANIRDEVAFHTAKCEKLQKEKEELERRFEDEVKRLGWQQQAELQELEERLQLQFEVEMARLQEEHGDQLLSIRCQHQEQVEDLTASHDAALLEMENNHTVAITILQDDHDHKVQELMSTHELEKKELEENFEKLRLSLQDQVDTLTFQSQSLRDRARRFEEALRKNTEEQLEIALAPYQHLEEDMKSLKQVLEMKNQQIHEQEKKILELEKLAEKNIILEEKIQVLQQQNEDLKARIDQNTVVTRQLSEENANLQEYVEKETQEKKRLSRTNEELLWKLQTGDPTSPIKLSPTSPVYRGSSSGPSSPARVSTTPR [A89V]

Variants of: B4
Settings: with leg8_human LGALS8, O00214
Chain of leg8_human LGALS8, O00214 (O00214 whole entry): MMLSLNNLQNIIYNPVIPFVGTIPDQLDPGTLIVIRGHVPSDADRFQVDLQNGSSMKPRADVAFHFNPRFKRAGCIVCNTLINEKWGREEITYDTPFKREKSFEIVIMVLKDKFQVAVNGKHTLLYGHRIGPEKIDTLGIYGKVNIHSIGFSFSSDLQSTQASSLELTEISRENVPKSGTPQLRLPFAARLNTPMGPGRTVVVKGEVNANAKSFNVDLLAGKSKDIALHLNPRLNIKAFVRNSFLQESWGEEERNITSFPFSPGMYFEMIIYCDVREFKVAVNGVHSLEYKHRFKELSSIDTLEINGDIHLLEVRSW

effect of a mutation on the interaction | Variant
with no effect | MEETIKDPPTSAVLLDHCHFSQVIFNSVEKFYIPGGDVTCHYTFTQHFIPRRKDWIGIFRVGWKTTREYYTFMWVTLPIDLNNKSAKQQEVQFKAYYLPKDDEYYQFCYVDEDGVVRGASIPFQFRPENEEDILVVTTQGEVEEIEQHNKELCKENQELKDSCISLQKQNSDMQAELQKKQEELETLQSINKKLELKVKEQKDYWETELLQLKEQNQKMSSENEKMGIRVDQLQAQLSTQEKEMEKLVQGDQDKTEQLEQLKKENDHLFLSLTEQRKDQKKLEQTVEQMKQNETTAMKKQQELMDENFDLSKRLSENEIICNALQRQKERLEGENDLLKRENSRLLSYMGLDFNSLPYQVPTSDEGGARQNPGLAYGNPYSGIQESSSASPLSIKKCPICKADDICDHTLEQQQMQPLCFNCPICDKIFPATEKQIFEDHVFCHSL [P389A]

Variants of: B4
Settings: with tcl1a_human TCL1A

effect of a mutation on the interaction | Variant
with no effect | MEETIKDPPTSAVLLDHCHFSQVIFNSVEKFYIPGGDVTCHYTFTQHFIPRRKDWIGIFRVGWKTTREYYTFMWVTLPIDLNNKSAKQQEVQFKAYYLPKDDEYYQFCYVDEDGVVRGASIPFQFRPENEEDILVVTTQGEVEEIEQHNKELCKENQELKDSCISLQKQNSDMQAELQKKQEELETLQSINKKLELKVKEQKDYWETELLQLKEQNQKMSSENEKMGIRVDQLQAQLSTQEKEMEKLVQGDQDKTEQLEQLKKENDHLFLSLTEQRKDQKKLEQTVEQMKQNETTAMKKQQELMDENFDLSKRLSENEIICNALQRQKERLEGENDLLKRENSRLLSYMGLDFNSLPYQVPTSDEGGARQNPGLAYGNPYSGIQESSSASPLSIKKCPICKADDICDHTLEQQQMQPLCFNCPICDKIFPATEKQIFEDHVFCHSL [P389A]

Variants of: B4
Settings: with dus12_human DUSP12, Q9UNI6
Chain of dus12_human DUSP12, Q9UNI6 (Q9UNI6 whole entry): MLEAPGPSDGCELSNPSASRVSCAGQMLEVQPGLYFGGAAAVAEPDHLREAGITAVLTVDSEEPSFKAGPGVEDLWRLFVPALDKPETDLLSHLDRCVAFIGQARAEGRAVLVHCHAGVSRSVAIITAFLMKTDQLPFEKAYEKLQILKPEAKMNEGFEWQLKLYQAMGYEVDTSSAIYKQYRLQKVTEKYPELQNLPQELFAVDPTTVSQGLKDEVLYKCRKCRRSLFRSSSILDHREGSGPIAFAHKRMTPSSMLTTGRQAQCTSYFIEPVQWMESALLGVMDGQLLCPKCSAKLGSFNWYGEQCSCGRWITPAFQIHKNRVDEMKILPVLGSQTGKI

effect of a mutation on the interaction | Variant
with no effect | MEETIKDPPTSAVLLDHCHFSQVIFNSVEKFYIPGGDVTCHYTFTQHFIPRRKDWIGIFRVGWKTTREYYTFMWVTLPIDLNNKSAKQQEVQFKAYYLPKDDEYYQFCYVDEDGVVRGASIPFQFRPENEEDILVVTTQGEVEEIEQHNKELCKENQELKDSCISLQKQNSDMQAELQKKQEELETLQSINKKLELKVKEQKDYWETELLQLKEQNQKMSSENEKMGIRVDQLQAQLSTQEKEMEKLVQGDQDKTEQLEQLKKENDHLFLSLTEQRKDQKKLEQTVEQMKQNETTAMKKQQELMDENFDLSKRLSENEIICNALQRQKERLEGENDLLKRENSRLLSYMGLDFNSLPYQVPTSDEGGARQNPGLAYGNPYSGIQESSSASPLSIKKCPICKADDICDHTLEQQQMQPLCFNCPICDKIFPATEKQIFEDHVFCHSL [P389A]

Variants of: B4
Settings: with tekt3_human TEKT3, Q9BXF9
Chain of tekt3_human TEKT3, Q9BXF9 (Q9BXF9 whole entry): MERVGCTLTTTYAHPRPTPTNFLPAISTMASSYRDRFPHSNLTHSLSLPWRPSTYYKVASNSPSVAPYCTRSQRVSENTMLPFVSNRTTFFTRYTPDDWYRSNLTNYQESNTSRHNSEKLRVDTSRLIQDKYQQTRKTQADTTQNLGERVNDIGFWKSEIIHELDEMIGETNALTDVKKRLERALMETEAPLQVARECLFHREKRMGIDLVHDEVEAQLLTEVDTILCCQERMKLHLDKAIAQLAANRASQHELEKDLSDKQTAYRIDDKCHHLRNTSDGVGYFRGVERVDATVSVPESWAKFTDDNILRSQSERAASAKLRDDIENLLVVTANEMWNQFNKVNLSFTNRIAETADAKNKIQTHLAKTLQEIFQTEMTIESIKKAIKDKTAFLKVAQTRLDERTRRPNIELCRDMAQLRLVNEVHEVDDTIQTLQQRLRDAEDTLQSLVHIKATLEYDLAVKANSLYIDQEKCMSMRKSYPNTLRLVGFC

effect of a mutation on the interaction | Variant
with no effect | MEETIKDPPTSAVLLDHCHFSQVIFNSVEKFYIPGGDVTCHYTFTQHFIPRRKDWIGIFRVGWKTTREYYTFMWVTLPIDLNNKSAKQQEVQFKAYYLPKDDEYYQFCYVDEDGVVRGASIPFQFRPENEEDILVVTTQGEVEEIEQHNKELCKENQELKDSCISLQKQNSDMQAELQKKQEELETLQSINKKLELKVKEQKDYWETELLQLKEQNQKMSSENEKMGIRVDQLQAQLSTQEKEMEKLAQGDQDKTEQLEQLKKENDHLFLSLTEQRKDQKKLEQTVEQMKQNETTAMKKQQELMDENFDLSKRLSENEIICNALQRQKERLEGENDLLKRENSRLLSYMGLDFNSLPYQVPTSDEGGARQNPGLAYGNPYSGIQESSSPSPLSIKKCPICKADDICDHTLEQQQMQPLCFNCPICDKIFPATEKQIFEDHVFCHSL [V248A]

From IntAct's records for PubMed 31515488
